In patent publication US20160208018A1 (JUNO THERAPEUTICS, published 2016):
Each block holds one binder with its values, some of them ahead of it.

Experiments:
[1] = target: T1, Human ROR1 (receptor tyrosine kinase-like orphan receptor 1) (human, UniProt Q01973 30-937); test: competition with R12 scFv on ROR1-expressing cells; predicted plateau relative to R12 scFv = 100%
T1 construct: also called hROR1; K562/ROR1
Experimental: (§1) Additionally, percent (%) maximum (max) binding to ROR1-expressing cells and % max competition with the reference antibody (R12 scFv) were calculated. Percent max binding and competition values were calculated based on predicted plateaus (measured by Prism® using four parameter non-linear regression), relative to values for R12 scFv binding and inhibition, respectively, assigned as 100% in each study.
(§2) Assays also were performed to assess competition (measured as half maximal inhibitory concentration (IC₅₀)) of the clones with the R12 scFv reference antibody for binding to ROR1-expressing cells, as described in Example 1. Percent (%) max ROR1 and % max competition, as compared to the R12 scFv reference antibody, were determined as described in Example 1.

[2] = target: T1, Human ROR1 (receptor tyrosine …); test: flow cytometry competition, competitor R12 scFv on ROR1-expressing cells, mean (n = 3)
Experimental: (§3) Assays also were performed to assess competition of the clones with the reference antibody (R12 scFv), for binding to ROR1-expressing cells. VH clones were titrated against 2 nM Myc-R12 on ROR1/K562 cells and competition assessed with an anti-Myc-Alexa647 secondary antibody, and the half maximal inhibitory concentration (IC₅₀) determined for respective clones.
as §2

[3] = target: T1, Human ROR1 (receptor tyrosine …); test: flow cytometry on ROR1-expressing K562 and CHOK1 cells, mean (n = 2)
[4] = target: T1, Human ROR1 (receptor tyrosine …); test: flow cytometry on ROR1-expressing cells; predicted plateau relative to R12 scFv = 100%
Experimental: as §1, §2

[5] = target: T1, Human ROR1 (receptor tyrosine …); test: flow cytometry self-competition, competitor 2 nM Myc-R12 scFv on ROR1/K562 cells, mean (n = 17)
Experimental: as §3

[6] = target: T1, Human ROR1 (receptor tyrosine …); test: flow cytometry on ROR1-expressing K562 and CHOK1 cells, mean (n = 20)
[7] = target: T1, Human ROR1 (receptor tyrosine …); test: as above; remark: listed apart in the source
[8] = target: T1, Human ROR1 (receptor tyrosine …); test: flow cytometry self-competition, competitor R12 scFv on ROR1-expressing cells, mean (n = 17)
Experimental: as §3, §2

Mouse ROR1 = target: T2, Mouse ROR1 (mouse, UniProt Q9Z139 30-937); test: inferred from IFN-gamma release of CAR-expressing CD8+ T cells co-cultured with K562/mouse ROR1 cells
T2 construct: also called mROR1; K562/mouse ROR1
Experimental: Cytokine release was assessed following incubation of the CAR-expressing cells with either K562/human ROR1 (hROR1) or K562/mouse ROR1 (mROR1) antigen-expressing cells. Transduced CD8+ T cells were co-cultured with antigen-expressing cells at a single effector to target (E:T). The co-cultured cells were incubated for about 24 hours, and then supernatants were collected for measurement of IFN-γ using a cytokine immunoassay.

T1 sequence (Q01973 30-937): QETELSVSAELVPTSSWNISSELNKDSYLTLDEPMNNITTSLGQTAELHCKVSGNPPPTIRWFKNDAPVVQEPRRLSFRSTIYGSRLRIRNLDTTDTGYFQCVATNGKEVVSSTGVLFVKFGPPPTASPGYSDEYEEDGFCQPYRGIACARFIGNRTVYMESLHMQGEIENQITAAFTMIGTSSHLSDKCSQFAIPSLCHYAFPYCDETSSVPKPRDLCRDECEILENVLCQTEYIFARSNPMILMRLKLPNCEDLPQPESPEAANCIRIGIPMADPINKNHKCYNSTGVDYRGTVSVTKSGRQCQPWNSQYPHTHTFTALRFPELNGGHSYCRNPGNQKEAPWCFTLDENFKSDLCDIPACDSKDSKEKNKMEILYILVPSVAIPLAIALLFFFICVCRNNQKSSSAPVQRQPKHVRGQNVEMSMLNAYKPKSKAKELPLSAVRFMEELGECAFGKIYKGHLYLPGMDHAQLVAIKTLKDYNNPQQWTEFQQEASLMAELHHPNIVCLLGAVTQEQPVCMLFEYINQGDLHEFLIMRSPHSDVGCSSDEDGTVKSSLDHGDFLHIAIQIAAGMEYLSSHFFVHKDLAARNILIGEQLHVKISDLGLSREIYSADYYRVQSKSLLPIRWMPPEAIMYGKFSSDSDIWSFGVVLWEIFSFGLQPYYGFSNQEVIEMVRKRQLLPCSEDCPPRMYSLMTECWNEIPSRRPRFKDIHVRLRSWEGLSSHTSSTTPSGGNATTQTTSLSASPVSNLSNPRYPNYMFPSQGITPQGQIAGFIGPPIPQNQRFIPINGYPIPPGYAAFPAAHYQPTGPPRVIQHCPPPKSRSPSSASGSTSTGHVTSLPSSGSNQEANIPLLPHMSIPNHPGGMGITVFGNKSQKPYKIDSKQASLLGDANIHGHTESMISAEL
T2 sequence (Q9Z139 30-937): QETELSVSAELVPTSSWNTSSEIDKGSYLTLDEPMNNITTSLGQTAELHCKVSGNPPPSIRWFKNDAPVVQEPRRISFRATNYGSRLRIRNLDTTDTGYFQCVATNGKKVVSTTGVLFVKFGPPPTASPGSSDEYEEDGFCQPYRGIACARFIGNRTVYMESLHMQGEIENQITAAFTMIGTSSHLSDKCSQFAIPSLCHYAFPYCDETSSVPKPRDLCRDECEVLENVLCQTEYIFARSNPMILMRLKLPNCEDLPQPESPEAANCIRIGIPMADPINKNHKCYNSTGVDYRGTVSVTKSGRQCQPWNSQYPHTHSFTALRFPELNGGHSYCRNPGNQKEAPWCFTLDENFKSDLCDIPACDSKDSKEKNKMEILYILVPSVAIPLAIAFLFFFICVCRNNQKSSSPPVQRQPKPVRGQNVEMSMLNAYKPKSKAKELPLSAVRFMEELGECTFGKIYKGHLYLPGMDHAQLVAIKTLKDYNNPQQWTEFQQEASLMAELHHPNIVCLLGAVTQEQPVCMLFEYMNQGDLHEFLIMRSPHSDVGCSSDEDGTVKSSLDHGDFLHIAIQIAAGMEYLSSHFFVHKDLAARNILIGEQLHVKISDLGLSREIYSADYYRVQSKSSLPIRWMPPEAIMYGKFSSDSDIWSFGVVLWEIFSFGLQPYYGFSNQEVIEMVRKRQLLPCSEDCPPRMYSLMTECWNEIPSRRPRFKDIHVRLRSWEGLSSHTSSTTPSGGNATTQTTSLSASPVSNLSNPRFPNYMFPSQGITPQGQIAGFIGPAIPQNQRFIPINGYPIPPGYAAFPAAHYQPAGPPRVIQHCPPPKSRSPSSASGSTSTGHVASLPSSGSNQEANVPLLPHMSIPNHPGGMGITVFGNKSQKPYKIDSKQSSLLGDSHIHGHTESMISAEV

% Max Competition [1]: 103% | IC50 [2]: 11.1 nM | EC50 [3]: 2.5 nM | % Max Binding [4]: 70%
B1: Clone 83 scFv (scFv)
scFv: QVQLVQSGAEVKKPGASVKVSCKASGYTFTSYYMHWVRQAPGQGLEWMGIINPSGGSTSYAQKFQGRVTMTRDTSTSTVYMELSSLRSEDTAVYYCARDSSYDAFDIWGQGTMVTVSSGGGGSGGGGSGGGGSAIQLTQSPSTLSASVGDRVTITCQASQDISNYLNWYQQKPGKAPKLLINDASYLETGVPSRFSGSGSGTDFTLTISSLQPEDIATYYCQQYESLPYTFGQGTKLEIK

IC50 [5]: 3.3 nM | EC50 [6]: 0.8 nM | EC50 [7]: 0.8 nM | IC50 [8]: 3.3 nM
B2: R12 scFv reference antibody (scFv)
scFv: QEQLVESGGRLVTPGGSLTLSCKASGFDFSAYYMSWVRQAPGKGLEWIATIYPSSGKTYYATWVNGRFTISSDNAQNTVDLQMNSLTAADRATYFCARDSYADDGALFNIWGPGTLVTISSGGGGSGGGGSGGGGSELVLTQSPSVSAALGSPAKITCTLSSAHKTDTIDWYQQLQGEAPRYLMQVQSDGSYTKRPGVPDRFSGSSSGADRYLIIPSVQADDEADYYCGADYIGGYVFGGGTQLTVTG
notes: also called Myc-R12; rabbit anti-ROR1 antibody

binding result (Mouse ROR1): no binding
B3: CAR containing the rabbit anti-ROR1 (R12) scFv (VH-VL) (other)
chain: QEQLVESGGRLVTPGGSLTLSCKASGFDFSAYYMSWVRQAPGKGLEWIATIYPSSGKTYYATWVNGRFTISSDNAQNTVDLQMNSLTAADRATYFCARDSYADDGALFNIWGPGTLVTISSGGGGSGGGGSGGGGSELVLTQSPSVSAALGSPAKITCTLSSAHKTDTIDWYQQLQGEAPRYLMQVQSDGSYTKRPGVPDRFSGSSSGADRYLIIPSVQADDEADYYCGADYIGGYVFGGGTQLTVTG
notes: Control chimeric antigen receptor expressed on primary human CD8+ T cells; tEGFR marker is split off by T2A; also called R12 scFv CAR; not shown: Ig-derived hinge only spacer, human CD28-derived transmembrane domain, human 4-1BB-derived intracellular signaling domai
